Laboratory results published in publication PMC3198426.

Target: HAVI-Fluc-bJun (basic leucine zipper region of Jun, 225-334) (human)
Assay: pull-down; DLR-PD (dual luciferase reporter pull-down): both proteins co-expressed in HEK293; lysate in passive lysis buffer on Streptavidin MagneSphere Paramagnetic Particles in PBS, 30 m to 1 h, room temperature; two washes PBS with 1% Nonidet P 40, one with PBS; the biotinylated HAVI-tagged protein is held, Fluc and Rluc activity read on the beads; in some samples eYFP-MAVS or other activators (IRF3) or HCV NS3/4A (MAVS) co-expressed

Rluc-bFos-Flag (basic leucine zipper region of Fos, 118-220), sequence (P01100 other isoform, or with tags, fused parts or gaps): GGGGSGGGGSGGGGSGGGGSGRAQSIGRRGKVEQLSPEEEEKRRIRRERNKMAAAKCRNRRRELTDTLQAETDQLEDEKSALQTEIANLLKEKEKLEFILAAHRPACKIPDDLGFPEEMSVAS
HAVI-Fluc-bJun (basic leucine zipper region of Jun, 225-334) (human), sequence (P05412 whole entry): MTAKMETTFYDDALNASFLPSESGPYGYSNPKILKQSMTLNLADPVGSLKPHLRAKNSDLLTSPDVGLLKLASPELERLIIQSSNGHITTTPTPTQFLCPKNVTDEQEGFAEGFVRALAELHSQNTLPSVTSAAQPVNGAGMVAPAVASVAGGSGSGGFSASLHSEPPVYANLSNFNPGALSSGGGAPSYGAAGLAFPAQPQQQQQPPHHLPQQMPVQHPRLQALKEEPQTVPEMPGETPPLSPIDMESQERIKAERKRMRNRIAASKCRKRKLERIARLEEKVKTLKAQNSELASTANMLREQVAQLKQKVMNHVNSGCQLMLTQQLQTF

activity ratio of Rluc/Fluc on the beads (Rluc/Fluc activity ratio): 1.7
fold of the percentage of Rluc on beads over the three negative controls: > 80 fold
molar ratio of Rluc-bFos to HAVI-Fluc-bJun binding to the beads: 0.1 molar ratio
percentage of Rluc on beads to lysate: 4%
Substance: Rluc-bFos-Flag (basic leucine zipper region of Fos, 118-220) (from UniProt P01100 118-220) (domain or fragment)
